In publication doi:10.1101/2025.07.20.665809 (bioRxiv, 2025):

Target: the molecule itself
Assay: cross-linking

Row | Protein | binding result
1 | His-hArc/Arg3.1 (recombinant human activity-regulated cytoskeleton-associated protein), wild type (natural protein, UniProt Q7LC44 2-396, looked up) ELDHRTSGGLHAYPGPRGGQVAKPNVILQIGKCRAEMLEHVRRTHRHLLAEVSKQVERELKGLHRSVGKLESNLDGYVPTSDSQRWKKSIKACLCRCQETIANLERWVKREMHVWREVFYRLERWADRLESTGGKYPVGSESARHTVSVGVGGPESYCHEADGYDYTVSPYAITPPPAAGELPGQEPAEAQQYQPWVPGEDGQPSPGVDTQIFEDPREFLSHLEEYLRQVGGSEEYWLSQIQNHMNGPAKKWWEFKQGSVKNWVEFKKEFLQYSEGTLSREAIQRELDLPQKQGEPLDQFLWRKRDLYQTLYVDADEEEIIQYVVGTLQPKLKRFLRHPLPKTLEQLIQRGMEVQDDLEQAAEPAGPHLPVEDEAETLTPAPNSESVASDRTQPE | binds
2 | His-hArc/Arg3.1 C94/98A (natural protein, human, UniProt Q7LC44 2-396, looked up) ELDHRTSGGLHAYPGPRGGQVAKPNVILQIGKCRAEMLEHVRRTHRHLLAEVSKQVERELKGLHRSVGKLESNLDGYVPTSDSQRWKKSIKAALCRAQETIANLERWVKREMHVWREVFYRLERWADRLESTGGKYPVGSESARHTVSVGVGGPESYCHEADGYDYTVSPYAITPPPAAGELPGQEPAEAQQYQPWVPGEDGQPSPGVDTQIFEDPREFLSHLEEYLRQVGGSEEYWLSQIQNHMNGPAKKWWEFKQGSVKNWVEFKKEFLQYSEGTLSREAIQRELDLPQKQGEPLDQFLWRKRDLYQTLYVDADEEEIIQYVVGTLQPKLKRFLRHPLPKTLEQLIQRGMEVQDDLEQAAEPAGPHLPVEDEAETLTPAPNSESVASDRTQPE | binds
